Earlier results as cited in paper PMC3946517.

Assays:
[1] = target: preMADH (Paracoccus denitrificans) (UniProt P22619); assay: stopped-flow kinetics
[2] = target: quinol MADH (Paracoccus denitrificans) (UniProt P22619); assay: stopped-flow kinetics

For MauG (from UniProt Q51658), the Kd [1] is listed as less than 1.5 µM and the Kd [2] is listed as 11.2 µM.
